Variants at the floor of the assay were thinned out.
B1: TPR 5TU (parent)
chain: GGAUCUUCUCGAUCUAACAAAAAAGACAAAUCUGCCACAAAGCUUGAGAGCAUCUUCGGAUGCAGAGGCGGCAGCCUUCGGUGGCGCGAUAGCGCCAACGUUCUCAACUAUGACACGCAAAACGCGUGCUCCGUUGAAUGGAGUUUAUCAUG

Variants of: B1
Assay: polymerase ribozyme fitness, log enrichment relative to wild type (log ratio); higher = more active; in vitro selection for triplet polymerase activity
Outline: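 Genotype fitness is the logarithm of its enrichment divided by wild-type enrichment, using inverse-variance-weighted averages of replicates. That logarithm is base 2. Enrichment was measured by Illumina sequencing of input and output libraries from one triplicate in vitro selection round, with frozen incubation at −7 °C, on PCR-built, transcribed mutant libraries of each subunit of a heterodimeric triplet polymerase ribozyme, retaining genotypes with ≥10 input reads and ≥1 read per output.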

Variant | polymerase ribozyme fitness (log ratio)
C85A U130A | -2.45
C85U C95G A119U | -1.89
C87U A120U C123G | -1.06
C87A C103A C114U | ≤ -4.2
C85G G92U A138U U145A | ≤ -4.2
C85G C87G A98U A137G U144C | ≤ -4.2
C85G C125A | -2.37
G86U A106C | -1.79
G88U C95G U144C | ≤ -4.2
A91C A98G A122U U144C A147U A150C | ≤ -4.2
C87G A113C A138U U146C | ≤ -4.2
A91G C118G G143C | ≤ -4.2
C85U A89C C93U C149U | -3.26
C85U G126A A142G | -0.307
C85G C116A | -0.515
C85U A150U G152A | -0.481
C85G A107U | ≤ -4.2
C85U A142C | -1.12
A91U A98G U102G C105U | ≤ -4.2
G92C A98U G143A | -1.77
U90G C116G | -3.78
C85U C149A | ≤ -4.2
C85U C95A U127G | -3.88
C87U C93U | -2.9

Variant | polymerase ribozyme fitness (log ratio)
C87U C116U C118A | -0.495
G92A C125A U134G | -3.58
A91U A106C C125A | ≤ -4.2
G92A C116U C125U U134C | ≤ -4.2
A91G U144A | -3.08
C85U U102G | -3.32
G92C G94A | -2.95
C85G C118G | -2.62
C87U C105U | -2.21
G88U C108G C118U A120U | ≤ -4.2
G86U C123G | -1.55
G86U C123A | -1.99
C85A G117C C118A A147U | -0.0649
C87G U90C | -4.07
C87G C114G A137G | ≤ -4.2
G92C U101G C131A | -3.96
U90A U130A | ≤ -4.2
A91G G133A G141U G143U | ≤ -4.2
G88U C95G | -3.65
A91G C114A C116U A137C | -3.79
C85G C118U C132U | -3.11
C85G A119G | -1.7
C85G A119C | -2.45
U90A A107G | ≤ -4.2

Variant | polymerase ribozyme fitness (log ratio)
G92A C116U | -2.29
G92A C116G | -2.6
A91G G140A | -4.12
G86U C118U C125U | -4.01
A89G A110U U151A | -3.58
G92A A97G A122U U148C | -3.63
A89G C95U A142C | -2.81
A91G C105U C131A | -3.83
C87A U127G | ≤ -4.2
G88U A121C | ≤ -4.2
C85U U146A G152U | -3.06
C87U G136C | -3.65
G88U A115C A120G | -3.89
C87U U127A | -3.2
C85U C96A C116G | -0.604
C85U G140U | -2.51
G86C C87G C108G | ≤ -4.2
A91C A113G | -4.15
C87U C105U A107U | -3.79
C87U C116A G117C C118G | -1.82
C85G G100A | ≤ -4.2
C85G G133C | -2.86
G86U G92C A98G A150U | -2.26
A91G C95U C125U | -4.09

Variant | polymerase ribozyme fitness (log ratio)
U90C G126U | -3.66
C87G C93U C99A U134G G141U | ≤ -4.2
C87U C96U | -1
C87U C96A | -1.2
C85U C118U A142U | -1.02
A91U U111C | ≤ -4.2
C85G U101G G128U | -4.03
C87G C105A | ≤ -4.2
C85U U101G C125U | -0.351
G92C A138G G140A | ≤ -4.2
G88A U101G U102G A138U U139G | ≤ -4.2
A91G C118U | -3.15
A91G C118G | -3.49
C85G U144A | -2.27
C85A G141C | -1.46
C85A G141A | -1.85
C85G A122U | -1.53
A91G C123G | -2.82
A91G C123U | -2.7
A89G U139G | -0.875
C87U U90C | -3.33
G92A A138C U148C | ≤ -4.2
C87U C118U U135G | ≤ -4.2
G92C C99A A138C | ≤ -4.2

Variant | polymerase ribozyme fitness (log ratio)
U90A C99U U111C | -4.13
C85U A91C C105U | ≤ -4.2
C85U C95G | -2.03
C85U U127C A137U | ≤ -4.2
C85U C108U | -3.1
G86U C103A A121G | -2.73
C87G A107G | ≤ -4.2
A89U C95G | -1.9
C85G U134A | -3.86
C87U A122U | -0.5
A89G C95A G136U | -3.75
G86C U151G | ≤ -4.2
C85U A98U | -1.49
A91C U102G A138C | ≤ -4.2
A91U U139A G140C G143C | ≤ -4.2
G88A C116U | -4.05
C85G C96U A113U | -3.8
A89U A122U | -0.615
C85G C131G G152U | ≤ -4.2
C85U C93U C131A | -2.94
G88U G124A G128U U135C | ≤ -4.2
G86A U104G | -2.29
C87U C99G | -1.97
G92C U135C | -2.88

Variant | polymerase ribozyme fitness (log ratio)
G92C U135G | -3.12
G86A G141A | -0.545
G88A C93A C123U G126U G133U G140U | ≤ -4.2
A89C G92U | -1.92
C87U C118U | -0.642
G88A C95A C123A | ≤ -4.2
C85A G126C | -0.131
C85A G126U | -0.409
C87A G117C G136U G141U | ≤ -4.2
G92C U148G | -3.89
G92C U148C | -2.56
C85A U139G | -1.11
C85U U127G | -3.46
A91U G124U C131G | ≤ -4.2
A89C G124A | -1.59
C87U C108G U145G | ≤ -4.2
C87U A89G C103U A115C C123U G143U | ≤ -4.2
G86C C99U | -2.83
C85A G136A | -1.05
C85G C114A A150C | ≤ -4.2
G88C G126C | ≤ -4.2
C85U U145C | -0.732
C87G U144G | ≤ -4.2
C85U A150G | -1.76

Variant | polymerase ribozyme fitness (log ratio)
C85U A150C | -2.26
G92A G124A | -2.65
A91G U130G A150G | ≤ -4.2
A91G A142C | -3.5
C85U U144A | -0.618
U90C U102C A107U | ≤ -4.2
C87A A119U A147C | -4.05
G86A C103U | -1.01
G86A U101G | -0.828
C85U C96U G126C A147G | ≤ -4.2
G86A U90G | ≤ -4.2
C87U C131A G140A | -3.61
A91U A147U | -3.99
U90A C95U | ≤ -4.2
G86C A89U | -2.94
C87A C103U C108A A110C C132A | ≤ -4.2
G86A C123A U148G | -4.02
C87U G141A | -0.85
C87U G141C | -1.72
C87U C131U | 1.46
G86U G133A | ≤ -4.2
C85U U134C | -1.76
C85G G94A G117U G124U U135G | -3.69

— the RNAGym collection of RNA variant scans (doi:10.1073/pnas.2313332121)
